According to paper PMC10462681:

Columns and labels:
[1] = biological target: LRP4-HA mutant p.Tyr607Cys (c.1820A > G; LRP4-Mut), expressed in HEK293T cells (human) (UniProt O75096)
[2] = biological target: LRP4-HA mutant p.Tyr607Cys (c.1820A > G; LRP4-Mut), expressed in HEK293T cells (human) (UniProt O75096); test: pull-down; LRP4-HA (wild-type or mutated) from transfected HEK293T cells immobilised on beads with anti-HA antibody, incubated with or without recombinant agrin (1 µg/mL); western blot with anti-agrin antibody; N = 3 blots

recombinant rat agrin (neural agrin) (from UniProt P25304 1-1959) (ligand)
MuSK phosphorylation (anti-4G10 blot of immunoprecipitated MuSK-Flag) induced by agrin (0.4 µg/ml; 1, 3 and 6 h) in HEK293T cells expressing MuSK-Flag and mutant LRP4-HA, against wild-type LRP4-HA [1]: 40 % decrease | percent decrease of binding against wild-type LRP4 [2]: 80%
